Patent US20180327723A1, “Production of Glycosylated Nootkatol in Recombinant Hosts” (Evolva SA, priority 2015, published 2018)

Legend:
[1] = system: yeast; conditions: Gavira et al., 2013, Metab Eng. 18:25-35; cited from earlier work
[2] = system: wild-type MATa strain ATCC 28383; test: Growth-inhibitory effect on yeast, cell viability by plating (CFU); format: cell-based, S. cerevisiae; conditions: 0.125 g/L, 5 h of exposure, plated on YPD
Experimental: A 20 mL seed culture of wild-type MATa strain ATCC 28383 was grown in SD-THUL medium (0.67 Bacto yeast nitrogen base without amino acids, 2% glucose, 0.14% yeast synthetic drop-out medium without uracil, tryptophan, histidine and leucine). The culture was grown for 24 h, and 2.5 mL of the culture was used to inoculate 7 equal batches of 50 mL fermentation medium (2% (NH4)2SO4, 2% KH2PO4, 0.1% NaCl, 0.6% MgSO4.7H2O, 0.4% yeast extract, 1 mL mineral solution [FeSO4.7H2O 0.028%, ZnSO4.7H2O 0.029%, CuSO4.5H2O 0.008%, Na2MoO4.2H2O 0.024%, CoCl2.6H2O 0.024%, MnSO4.H2O 0.017%, HCl 1 mL], 0.5 mL 50% glucose, 1.5 mL vitamin solution [biotin 0.001%, Ca-pantothenate 0.012%, inositol 0.06%, pyridoxine-HCl 0.012%, thiamine-HCl 0.012%], and 0.5 mL 10% CaCl2) in 250 mL baffled Ehrlenmeyer flasks.
In 6 flasks, nootkatol or glycosylated nootkatol (nootkatol+1 glucose) were added in final concentrations of 0.06, 0.125, and 0.5 g/L. The 7th flask was used as a control and was not treated with nootkatol or glycosylated nootkatol. The cultures were grown at 28° C. and 170 rpm, and the cell viability was measured after 5 h of exposure by plating 100 μL of 1/1000 dilution of cell culture on yeast extract peptone dextrose (YPD) plates.

[3] = In vitro glycosylation of nootkatol by purified UGTs with UDP-glucose, LC-MS; format: biochemical; conditions: 5 mM nootkatol, 15 mM UDP-glucose, 5 μL purified enzyme, overnight at 30° C.
Excerpt: UGT85A1 (SEQ ID NO:9, SEQ ID NO:10), UGT76E1 (SEQ ID NO:11, SEQ ID NO:12), UGT73E1 (SEQ ID NO:13, SEQ ID NO:14), UGT73C3 (SEQ ID NO:15, SEQ ID NO:16), and UGT76E12 (SEQ ID NO:17, SEQ ID NO:18) were each cloned into a T7 promoter-based vector comprising a sequence coding for an N-terminal 6×His-tag. The vector backbone was linearized with restriction endonucleases, the UGT genes were amplified by PCR, and the constructs were verified by DNA sequencing.
Competent E. coli expression cells were transformed individually with a UGT-comprising plasmid. A colony from each transformation was inoculated individually in 6 mL NZCYM broth comprising an antibiotic. The pre-culture was incubated overnight at 37° C. and 220 rpm and used to inoculate 100 mL NZYCM broth with an antibiotic at an initial OD600 of 0.2. After growth at 37° C. until an OD600 of 0.6-0.8, the cells were induced for protein expression using 0.2 mM IPTG, followed by incubation at 20° C. and 120 rpm for 18-20 h.
Cells were harvested by centrifugation at approximately 4° C. and approximately 4000 g for 20 min and resuspended in 3 mL 10 mM Tris-HCl, pH 8.0 plus protease inhibitor. After cell disruption, 6 mL 1×HIS binding buffer (20 mM Tris-HCl, pH 7.5, 500 mM NaCl, and 10 mM imidazole) were added to the suspension. Cell crude extracts were centrifuged at 4° C. and approximately 4000 g for 30 min. The supernatant was collected, and 300 μL of nickel beads were added; the mixture was incubated with gentle mixing at 4° C. for 2 h. The mixture was centrifuged at 4° C. and approximately 1000 g for 3 min, the supernatant was removed, and the beads were resuspended with 3 mL 1×HIS binding buffer. This step was performed twice. The beads were then resuspended and mixed gently in 500 μL 1×HIS Binding Buffer. The mixture was then transferred into a cold Eppendorf tube, centrifuged at 4° C. and approximately 1000 g, and the supernatant was removed. The beads were resuspended in 400 μL elution buffer (20 mM Tris-HCl, pH 7.5, 500 mM NaCl, 250 mM imidazole), mixed gently, centrifuged at 4° C. and approximately 1000 g for 3 min, and the supernatant was collected. This step was performed three times to collect three elution fractions. Glycerol was added in a 1:1 ratio to each elution tube and protein solutions were stored at −80° C. The fractions were analyzed by SDS-PAGE and Western Blot. The fraction comprising the UGT with the highest purity was used for the subsequent in vitro assay.
UGT85A1 (SEQ ID NO:9, SEQ ID NO:10), UGT76E1 (SEQ ID NO:11, SEQ ID NO:12), UGT73E1 (SEQ ID NO:13, SEQ ID NO:14), UGT73C3 (SEQ ID NO:15, SEQ ID NO:16), and UGT76E12 (SEQ ID NO:17, SEQ ID NO:18) were employed for in vitro glycosylation of nootkatol in the presence of the sugar donor, UDP-glucose. The reaction was carried out in a final volume of 50 μL buffer (100 mM Tris, pH 8.0, 5 mM MgCl2, 1 mM KCl), 5 mM nootkatol in DMSO, 15 mM UDP-glucose, and 5 μL purified enzyme solution. The reaction was incubated overnight at 30° C. The sample was analyzed by LC-MS on a BEH C18-column (100 mm×2.1 mm, 5 μm). Mobile phase A was 0.1% formic acid in water; mobile phase B was 0.1% formic acid in acetonitrile. B concentration gradient was 0-1 min, 1%; 1-5 min, 100%; 5-7 min, 100%; 7-7.1 min, 1%; 7.1-9 min, 1%. The injection volume was 5 μL. […]

C=C(C)[C@@H]1CCC2=CC(=O)C[C@@H](C)[C@]2(C)C1 [nootkatone, 4,4a,5,6,7,8-hexahydro-6-isopropenyl-4,4a-dimethyl-2(3H)-napthalenone]
cellular toxicity in yeast [1]: cellular toxicity

C=C(C)C1CCC2=CC(O)CC(C)C2(C)C1 (centres unmarked) [nootkatol, 2,3,4,4a,5,6,7,8-octahydro-6-isopropenyl-4,4a-dimethyl-2-naphtalenol]
cell death [2]: ~99% | cellular toxicity in yeast [1]: cellular toxicity

B1: UGT76E1: UDP-glycosyltransferase, Arabidopsis thaliana, SEQ ID NO: 11, SEQ ID NO: 12 (protein, listed as Arabidopsis thaliana)
chain: MEELGVKRRIVLVPVPAQGHVTPIMQLGKALYSKGFSITVVLTQYNRVSSSKDFSDFHFLTIPGSLTESDLKNLGPFKFLFKLNQICEASFKQCIGQLLQEQGNDIACVVYDEYMYFSQAAVKEFQLPSVLFSTTSATAFVCRSVLSRVNAESFLLDMKDPKVSDKEFPGLHPLRYKDLPTSAFGPLESILKVYSETVNIRTASAVIINSTSCLESSSLAWLQKQLQVPVYPIGPLHIAASAPSSLLEEDRSCLEWLNKQKIGSVIYISLGSLALMETKDMLEMAWGLRNSNQPFLWVIRPGSIPGSEWTESLPEEFSRLVSERGYIVKWAPQIEVLRHPAVGGFWSHCGWNSTLESIGEGVPMICRPFTGDQKVNARYLERVWRIGVQLEGELDKGTVERAVERLIMDEEGAEMRKRVINLKEKLQASVKSRGSSFSSLDNFVNSLKMMNFM
Area-under-curve of the peak of glycosylated nootkatol (nootkatol+1 glucose) produced in vitro [3]: 1566336

B2: UGT85A1: UDP-glycosyltransferase, Arabidopsis thaliana, SEQ ID NO: 9, SEQ ID NO: 10 (protein, listed as Arabidopsis thaliana)
chain: MGSQIIHNSQKPHVVCVPYPAQGHINPMMRVAKLLHARGFYVTFVNTVYNHNRFLRSRGSNALDGLPSFRFESIADGLPETDMDATQDITALCESTMKNCLAPFRELLQRINAGDNVPPVSCIVSDGCMSFTLDVAEELGVPEVLFWTTSGCAFLAYLHFYLFIEKGLCPLKDESYLTKEYLEDTVIDFIPTMKNVKLKDIPSFIRTTNPDDVMISFALRETERAKRASAIILNTFDDLEHDVVHAMQSILPPVYSVGPLHLLANREIEEGSEIGMMSSNLWKEEMECLDWLDTKTQNSVIYINFGSITVLSVKQLVEFAWGLAGSGKEFLWVIRPDLVAGEEAMVPPDFLMETKDRSMLASWCPQEKVLSHPAIGGFLTHCGWNSILESLSCGVPMVCWPFFADQQMNCKFCCDEWDVGIEIGGDVKREEVEAVVRELMDGEKGKKMREKAVEWQRLAEKATEHKLGSSVMNFETVVSKFLLGQKSQD
Area-under-curve of the peak of glycosylated nootkatol (nootkatol+1 glucose) produced in vitro [3]: 1632282

B3: UGT76E12: UDP-glycosyltransferase, Arabidopsis thaliana, SEQ ID NO: 17, SEQ ID NO: 18 (protein, listed as Arabidopsis thaliana)
chain: MQVLGMEEKPARRSVVLVPFPAQGHISPMMQLAKTLHLKGFSITVVQTKFNYFSPSDDFTHDFQFVTIPESLPESDFKNLGPIQFLFKLNKECKVSFKDCLGQLVLQQSNEISCVIYDEFMYFAEAAAKECKLPNIIFSTTSATAFACRSVFDKLYANNVQAPLKETKGQQEELVPEFYPLRYKDFPVSRFASLESIMEVYRNTVDKRTASSVIINTASCLESSSLSFLQQQQLQIPVYPIGPLHMVASAPTSLLEENKSCIEWLNKQKVNSVIYISMGSIALMEINEIMEVASGLAASNQHFLWVIRPGSIPGSEWIESMPEEFSKMVLDRGYIVKWAPQKEVLSHPAVGGFWSHCGWNSTLESIGQGVPMICRPFSGDQKVNARYLECVWKIGIQVEGELDRGVVERAVKRLMVDEEGEEMRKRAFSLKEQLRASVKSGGSSHNSLEEFVHFIRTL
Area-under-curve of the peak of glycosylated nootkatol (nootkatol+1 glucose) produced in vitro [3]: 820053

B4: UGT73E1: UDP-glycosyltransferase, Stevia rebaudiana, SEQ ID NO: 13, SEQ ID NO: 14 (protein, listed as Stevia rebaudiana)
chain: MSPKMVAPPTNLHFVLFPLMAQGHLVPMVDIARILAQRGATVTIITTPYHANRVRPVISRAIATNLKIQLLELQLRSTEAGLPEGCESFDQLPSFEYWKNISTAIDLLQQPAEDLLRELSPPPDCIISDFLFPWTTDVARRLNIPRLVFNGPGCFYLLCIHVAITSNILGENEPVSSNTERVVLPGLPDRIEVTKLQIVGSSRPANVDEMGSWLRAVEAEKASFGIVVNTFEELEPEYVEEYKTVKDKKMWCIGPVSLCNKTGPDLAERGNKAAITEHNCLKWLDERKLGSVLYVCLGSLARISAAQAIELGLGLESINRPFIWCVRNETDELKTWFLDGFEERVRDRGLIVHGWAPQVLILSHPTIGGFLTHCGWNSTIESITAGVPMITWPFFADQFLNEAFIVEVLKIGVRIGVERACLFGEEDKVGVLVKKEDVKKAVECLMDEDEDGDQRRKRVIELAKMAKIAMAEGGSSYENVSSLIRDVTETVRAPH
Area-under-curve of the peak of glycosylated nootkatol (nootkatol+1 glucose) produced in vitro [3]: 1288384

B5: UGT73C3: UDP-glycosyltransferase, Arabidopsis thaliana, SEQ ID NO: 15, SEQ ID NO: 16 (protein, listed as Arabidopsis thaliana)
chain: MATEKTHQFHPSLHFVLFPFMAQGHMIPMIDIARLLAQRGVTITIVTTPHNAARFKNVLNRAIESGLAINILHVKFPYQEFGLPEGKENIDSLDSTELMVPFFKAVNLLEDPVMKLMEEMKPRPSCLISDWCLPYTSIIAKNFNIPKIVFHGMGCFNLLCMHVLRRNLEILENVKSDEEYFLVPSFPDRVEFTKLQLPVKANASGDWKEIMDEMVKAEYTSYGVIVNTFQELEPPYVKDYKEAMDGKVWSIGPVSLCNKAGADKAERGSKAAIDQDECLQWLDSKEEGSVLYVCLGSICNLPLSQLKELGLGLEESRRSFIWVIRGSEKYKELFEWMLESGFEERIKERGLLIKGWAPQVLILSHPSVGGFLTHCGWNSTLEGITSGIPLITWPLFGDQFCNQKLVVQVLKAGVSAGVEEVMKWGEEDKIGVLVDKEGVKKAVEELMGDSDDAKERRRRVKELGELAHKAVEKGGSSHSNITLLLQDIMQLAQFKN
Area-under-curve of the peak of glycosylated nootkatol (nootkatol+1 glucose) produced in vitro [3]: 1211635
